Experimental data published in the supplement of paper PMC7877785.
± gives the uncertainty stated by the source.

Test: self-splicing fitness, log relative to wild type (ln ratio); higher = more splicing; Tetrahymena group I intron in knt gene, E. coli kanamycin selection, DiMSum; sequences stand for … in CUCUCU…GGAGGGAAAAGUUAUCAGGCAUGCACCUGGUAGCUAGUCUUUAAACCAAUAGAUUGCAUCGGUUUAAAAGGCAAGACCGUCAAAUUGCGGGAAAGGGGUCAACAGCCGUUCAGUACCAAGUCUCAGGGGAAACUUUGAGAUGGCCUUGCAAAGGGUAUGGUAAUAAGCUGACGGACAUGGUCCUAACCACGCAGCCAAGUCCUAAGUCAACAGAUCUUCUGUUGAUAUGGAUGCAGUUCACAGACUAAAUGUCGGUCGGGGAAGAUGUAUUCUUCUCAUAAGAUAUAGUCGGACCUCUCCUUAAUGGGAGCUAGCGGAUGAAGUGAUGCAACACUGGAGCCGCUGGGAACUAAUUUGUAUGCGAAAGUAUAUUGAUUAGUUUUGGAGUACUCGUGGUCG
Procedure, shortened: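 Library with all eight P1ex-region intron nucleotides randomised, intron inside the knt kanamycin-resistance gene on pET-22b(+), in E. coli BL21(DE3). Cells grew overnight at 37°C or 30°C on LB agar with or without 25 μg/mL kanamycin (plus 100 μg/mL carbenicillin, 50 μM IPTG, 0.2% rhamnose), in six replicate transformations. Pooled colonies were amplicon-sequenced on Illumina HiSeq 2500. DiMSum fitness is the error-weighted combination of wild-type-normalised replicate fold changes, kanamycin versus none.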

| Sequence | self-splicing fitness (ln) (30 °C) | self-splicing fitness (ln) (37 °C) |
| --- | --- | --- |
| GGCAAGCAAUAUUACGAUUU | -0.299 ± 0.058 | 0.164 ± 0.077 |
| GGCAAGCAAUAUUACGCCAG |  | -2.52 ± 0.41 |
| GGCAAGCAAUAUUACGCCGU | -2.44 ± 0.34 | -0.00259 ± 0.29 |
| GGCAAGCAAUAUUACGCGAG | -2.32 ± 0.14 | -3.34 ± 0.24 |
| GGCAAGCAAUAUUACGCGCU | -3.35 ± 0.42 | -3.25 ± 0.43 |
| GGCAAGCAAUAUUACGCGGU | -2.97 ± 0.14 | -1.37 ± 0.12 |
| GGCAAGCAAUAUUACGCGUU | -0.907 ± 0.075 | -0.815 ± 0.1 |
| GGCAAGCAAUAUUACGCUGC | -3.37 ± 0.27 |  |
| GGCAAGCAAUAUUACGGAGG | -4.1 ± 0.18 | -2.87 ± 0.16 |
| GGCAAGCAAUAUUACGGAUA | -0.889 ± 0.1 | -0.586 ± 0.097 |
| GGCAAGCAAUAUUACGGAUC | -0.625 ± 0.096 | -0.11 ± 0.099 |
| GGCAAGCAAUAUUACGGCGG | -2.44 ± 0.19 | -1.13 ± 0.2 |
| GGCAAGCAAUAUUACGGGAC | -2.46 ± 0.13 | -0.918 ± 0.1 |
| GGCAAGCAAUAUUACGGUCU | -0.851 ± 0.093 | -0.575 ± 0.1 |
| GGCAAGCAAUAUUACGUAAG | -0.742 ± 0.072 | -1 ± 0.1 |
| GGCAAGCAAUAUUACGUAUA | -1.02 ± 0.066 | -0.515 ± 0.07 |
| GGCAAGCAAUAUUACGUCCC |  | -0.249 ± 0.28 |
| GGCAAGCAAUAUUACGUGGC | -3.53 ± 0.34 | -1.28 ± 0.19 |
| GGCAAGCAAUAUUACGUGGG | -3.42 ± 0.13 | -1.85 ± 0.1 |
| GGCAAGCAAUAUUACGUUAC | -1.39 ± 0.12 | -1.5 ± 0.14 |
| GGCCAGCAAUAUUACGAAGC | -2 ± 0.11 | 0.134 ± 0.13 |
| GGCCAGCAAUAUUACGACAU | -1.21 ± 0.013 | -0.437 ± 0.032 |
| GGCCAGCAAUAUUACGAGCU | -2.58 ± 0.4 |  |
| GGCCAGCAAUAUUACGAUCG | -3.35 ± 0.3 | -1.27 ± 0.15 |
| GGCCAGCAAUAUUACGCAAC | -1.19 ± 0.1 | -0.97 ± 0.12 |

| Sequence | self-splicing fitness (ln) (30 °C) | self-splicing fitness (ln) (37 °C) |
| --- | --- | --- |
| GGCCAGCAAUAUUACGCAGC | -3.08 ± 0.37 | -1.88 ± 0.33 |
| GGCCAGCAAUAUUACGCAGU | -1.37 ± 0.12 | -1.86 ± 0.19 |
| GGCCAGCAAUAUUACGCCAG | -3.88 ± 0.37 | -1.59 ± 0.35 |
| GGCCAGCAAUAUUACGCCAU | -3.57 ± 0.33 | -2.12 ± 0.28 |
| GGCCAGCAAUAUUACGCGCA | -0.425 ± 0.1 | 0.666 ± 0.13 |
| GGCCAGCAAUAUUACGCGCC | -3.11 ± 0.24 | -2.05 ± 0.44 |
| GGCCAGCAAUAUUACGCUGA | -0.636 ± 0.063 | -0.331 ± 0.074 |
| GGCCAGCAAUAUUACGGAAG | -1.79 ± 0.082 | -0.69 ± 0.11 |
| GGCCAGCAAUAUUACGUAUA | -3.92 ± 0.26 | -2.23 ± 0.2 |
| GGCCAGCAAUAUUACGUCAC | -2.59 ± 0.34 |  |
| GGCCAGCAAUAUUACGUGAC | -2.05 ± 0.09 | -1.16 ± 0.11 |
| GGCCAGCAAUAUUACGUGAU | -1.31 ± 0.075 | -0.482 ± 0.097 |
| GGCCAGCAAUAUUACGUGUU | -0.771 ± 0.055 | -0.0103 ± 0.07 |
| GGCGAGCAAUAUUACGAACA | -1.16 ± 0.16 | -0.12 ± 0.14 |
| GGCGAGCAAUAUUACGAAUG | -3.21 ± 0.18 | -2.84 ± 0.2 |
| GGCGAGCAAUAUUACGACUU | 0.166 ± 0.15 | 0.444 ± 0.14 |
| GGCGAGCAAUAUUACGAGUA | -1.9 ± 0.35 | -1.99 ± 0.22 |
| GGCGAGCAAUAUUACGCAUG | -1.32 ± 0.22 | -0.82 ± 0.23 |
| GGCGAGCAAUAUUACGCGGA | -2.3 ± 0.17 | -0.458 ± 0.13 |
| GGCGAGCAAUAUUACGCUAC | -1.38 ± 0.22 | 1.89 ± 0.48 |
| GGCGAGCAAUAUUACGCUAG | -3.88 ± 0.28 | -2.82 ± 0.23 |
| GGCGAGCAAUAUUACGGAAC | -1.91 ± 0.19 | -1.68 ± 0.26 |
| GGCGAGCAAUAUUACGUACG | -2.43 ± 0.18 | -1.35 ± 0.22 |
| GGCGAGCAAUAUUACGUAUA | -1.86 ± 0.14 | -1.07 ± 0.13 |
| GGCGAGCAAUAUUACGUCAG | -2.33 ± 0.31 | -3.08 ± 0.4 |

| Sequence | self-splicing fitness (ln) (30 °C) | self-splicing fitness (ln) (37 °C) |
| --- | --- | --- |
| GGCGAGCAAUAUUACGUCUC | -1.87 ± 0.23 | -1.67 ± 0.38 |
| GGCGAGCAAUAUUACGUGUC | -4.05 ± 0.21 | -1.46 ± 0.16 |
| GGCUAGCAAUAUUACGAAUU | -0.487 ± 0.19 | -0.299 ± 0.15 |
| GGCUAGCAAUAUUACGAGGC | -2.31 ± 0.24 |  |
| GGCUAGCAAUAUUACGAGUA | -1.59 ± 0.13 | -0.404 ± 0.13 |
| GGCUAGCAAUAUUACGAUGA | -0.793 ± 0.15 | -0.54 ± 0.16 |
| GGCUAGCAAUAUUACGAUGU | -1.45 ± 0.084 | -0.785 ± 0.083 |
| GGCUAGCAAUAUUACGAUUG | -1.67 ± 0.12 | -1.47 ± 0.13 |
| GGCUAGCAAUAUUACGCAAG | -4 ± 0.46 | -0.63 ± 0.22 |
| GGCUAGCAAUAUUACGGGAG | -2.17 ± 0.14 | -1.84 ± 0.19 |
| GGCUAGCAAUAUUACGGGUU | -1.9 ± 0.096 | -0.879 ± 0.09 |
| GGCUAGCAAUAUUACGGUAU | -0.65 ± 0.061 | 0.376 ± 0.084 |
| GGCUAGCAAUAUUACGGUGG | -1.23 ± 0.096 | -0.767 ± 0.1 |
| GGCUAGCAAUAUUACGUCAC | -2.28 ± 0.16 | -1.01 ± 0.17 |
| GGCUAGCAAUAUUACGUCGG | -3.95 ± 0.29 | -2.61 ± 0.26 |
| GGCUAGCAAUAUUACGUCGU | 0.26 ± 0.075 | 0.153 ± 0.092 |
| GGCUAGCAAUAUUACGUGAU | -0.939 ± 0.099 | -0.509 ± 0.11 |
| GGCUAGCAAUAUUACGUGCU | -2.34 ± 0.24 | -1.27 ± 0.14 |
| GGCUAGCAAUAUUACGUGUC | -1.67 ± 0.18 | -1.26 ± 0.23 |
| GGCUAGCAAUAUUACGUUAU | -0.733 ± 0.072 | -0.394 ± 0.091 |
| GGGAAGCAAUAUUACGAAAC | -0.695 ± 0.14 | -0.469 ± 0.17 |
| GGGAAGCAAUAUUACGAACA | -1.2 ± 0.13 | -0.445 ± 0.14 |
| GGGAAGCAAUAUUACGAACG | -0.494 ± 0.086 | 0.55 ± 0.16 |
| GGGAAGCAAUAUUACGACGC | -0.0345 ± 0.14 | -0.0751 ± 0.18 |
| GGGAAGCAAUAUUACGAGCG | -1.41 ± 0.12 | -0.447 ± 0.15 |

| Sequence | self-splicing fitness (ln) (30 °C) | self-splicing fitness (ln) (37 °C) |
| --- | --- | --- |
| GGGAAGCAAUAUUACGAUGC | 0.369 ± 0.12 | 0.306 ± 0.13 |
| GGGAAGCAAUAUUACGCACA | -2.53 ± 0.26 | -0.142 ± 0.41 |
| GGGAAGCAAUAUUACGCCUU | -1.8 ± 0.17 | 0.48 ± 0.15 |
| GGGAAGCAAUAUUACGCGAA | -0.913 ± 0.14 | -0.969 ± 0.2 |
| GGGAAGCAAUAUUACGCGAG | -1.06 ± 0.33 | -1.27 ± 0.47 |
| GGGAAGCAAUAUUACGCUAG | -1.73 ± 0.18 | -1.01 ± 0.2 |
| GGGAAGCAAUAUUACGCUGG | -2.97 ± 0.23 | -1.73 ± 0.18 |
| GGGAAGCAAUAUUACGCUUA | -0.798 ± 0.12 | -0.449 ± 0.12 |
| GGGAAGCAAUAUUACGCUUG | -1.61 ± 0.21 | -0.729 ± 0.2 |
| GGGAAGCAAUAUUACGGAUG | -3.55 ± 0.21 | -1.15 ± 0.15 |
| GGGAAGCAAUAUUACGGCAA | -0.863 ± 0.14 | -1.02 ± 0.14 |
| GGGAAGCAAUAUUACGGCUG | -0.935 ± 0.13 | -0.54 ± 0.17 |
| GGGAAGCAAUAUUACGGGCG | -1.14 ± 0.13 | -0.362 ± 0.15 |
| GGGAAGCAAUAUUACGGGUA | -0.928 ± 0.2 | -2.25 ± 0.23 |
| GGGAAGCAAUAUUACGGUGC | -1.17 ± 0.17 | -0.397 ± 0.22 |
| GGGAAGCAAUAUUACGUACG | -0.982 ± 0.15 | -0.441 ± 0.18 |
| GGGAAGCAAUAUUACGUACU | -2.15 ± 0.21 | -2.2 ± 0.22 |
| GGGAAGCAAUAUUACGUAUG | -2.95 ± 0.16 | -1.11 ± 0.15 |
| GGGAAGCAAUAUUACGUCAA | -1.34 ± 0.32 |  |
| GGGAAGCAAUAUUACGUCUG | 0.292 ± 0.099 | -0.174 ± 0.12 |
| GGGAAGCAAUAUUACGUUCA | 0.0857 ± 0.1 | -0.473 ± 0.14 |
| GGGAAGCAAUAUUACGUUGA | -3.37 ± 0.23 | -1.94 ± 0.18 |
